Measured values reported in patent US9187525B2, “Methods of treating ophthalmic diseases using NPR-B agonists” (Shire Orphan Therapies GmbH, dated 2015).
Numbered stars: 1 amine (or outer) side, 2 acyl side, 3 side chain; on linkers, the order of the positions; unused ones are H or OH. Square brackets hold non-standard residues; d marks the D form. Primed or numbered codes have the meaning given here. Ends that are not written are not given here. * marks the point of attachment. 2857‑Ac = 2-((2S,3R,4R,5R)-2,3,4,5,6-pentahydroxyhexylamino)acetic acid, O=C(CN(C[C@H](O)[C@@H](O)[C@H](O)[C@H](O)CO)[*:1])[*:2]; Eao = rac-1-amino-2,3-dihydro-1H-indene-1-carboxylic acid, O=C(C1(N[*:1])CCc2ccccc21)[*:2]; abu(pip) = (R)-2-amino-4-(piperidin-1-yl)butanoic acid, O=C([C@@H](CCN1CCCCC1)N[*:1])[*:2]; Sni = (S)-nipecotic acid, O=C([C@H]1CCCN([*:1])C1)[*:2]; Egg = 2-Amino-3-piperidin-4-yl-propionic acid; Fhy = Amino-piperidin-3-yl-acetic acid; pT = C[C@@H](OP(=O)(O)O)[C@H](N)C(=O)O; Hyp = O=C(O)[C@@H]1C[C@@H](O)CN1; pS = N[C@@H](COP(=O)(O)O)C(=O)O; AR‑385‑017 = not defined here; AR‑385‑042 = not defined here; Aoc(2) = CCCCCC[C@H](N)C(=O)O; NMeL = CN[C@@H](CC(C)C)C(=O)O; AR‑385‑12 = not defined here; Aic = NC1(C(=O)O)Cc2ccccc2C1; orn(Me2) = not defined here; NHexGly = CCCCCCNCC(=O)O; Octanoyl = CCCCCCCC(=O)*; 2137 = not defined here; Sni″ = not defined here; dHgl = not defined here; Che = not defined here; Fbz = not defined here; Rni = not defined here; hse = not defined here; leu = not defined here; mpa = not defined here; opa = not defined here; ppa = not defined here; Occ = octanoic acid; Dha = C=C(N)C(=O)O

B1: JAL-1913 (peptide)
peptide: [Occ][Sni]F[orn(Me2)]L[Hyp][NMeL][pT]RI-NH2
modifications: reading uncertain; also: printed as Occ-Sni-Phe-orn(Me2)-Leu-Hyp-Nml-Pth-Arg-Ile-NH2
B2: JAL-1907 (peptide)
peptide: [NHexGly][Sni]FLL[Hyp][NMeL]DRI-NH2
modifications: not fully specified (residue 4); printed as (1625-Ac)-Sni-Phe-leu-Leu-Hyp-Nml-Asp-Arg-Ile-NH2
B3: JAL-1896 (peptide)
peptide: H-[Aoc(2)][Sni]FLL[Hyp][NMeL]DRI-NH2
modifications: not fully specified (residue 4); printed as H-Hgl-Sni-Phe-leu-Leu-Hyp-Nml-Asp-Arg-Ile-NH2
B4: JAL-1883 (peptide)
peptide: Octanoyl-[Sni]FTL[Hyp][NMeL]DRI-NH2
modifications: not fully specified (some residues); printed as Occ-Sni-Phe-thr-Leu-Hyp-Nml-Asp-Arg-Ile-NH2
B5: JAL-1898 (peptide)
peptide: H-K[Aoc(2)][Sni]FLL[Hyp][NMeL]DRI-NH2
modifications: not fully specified (residue 5); printed as H-Lys-Hgl-Sni-Phe-leu-Leu-Hyp-Nml-Asp-Arg-Ile-NH2
B6: JAL-1882 (peptide)
peptide: [Occ][Sni]F[Fhy]L[Hyp][NMeL]DRI-NH2
B7: JAL-1887 (peptide)
peptide: [Occ][Sni]F[opa]L[Hyp][NMeL]DRI-NH2
modifications: reading uncertain; also: printed as Occ-Sni-Phe-opa-Leu-Hyp-Nml-Asp-Arg-Ile-NH2
B8: JAL-1877 (peptide)
peptide: [Occ][Sni]F[AR‑385‑12]L[Hyp][NMeL]DRI-NH2
modifications: reading uncertain; also: printed as Occ-Sni-Phe-(AR-385-12)-Leu-Hyp-Nml-Asp-Arg-Ile-NH2
B9: JAL-0748 (peptide)
peptide: Octanoyl-[dA][dA]FGLKLDR[2137]
modifications: reading uncertain; also: printed as Occ-ala-ala-Phe-Gly-Leu-Lys-Leu-Asp-Arg-2137
B10: JAL-1915_2 (peptide)
peptide: [Occ][Sni]F[Dha]L[Hyp][NMeL]DRI-NH2
B11: JAL-1890 (peptide)
peptide: [Occ][Sni]F[Egg]L[Hyp][NMeL]DRI-NH2
B12: JAL-1897 (peptide)
peptide: H-[dHgl][Sni]FLL[Hyp][NMeL]DRI-NH2
modifications: not fully specified (residue 4); printed as H-hgl-Sni-Phe-leu-Leu-Hyp-Nml-Asp-Arg-Ile-NH2; reading uncertain
B13: JAL-1879 (peptide)
peptide: [Occ][Sni]F[abu(pip)]L[Hyp][NMeL]DRI-NH2
B14: JAL-1899 (peptide)
peptide: H-K[dHgl][Sni]FLL[Hyp][NMeL]DRI-NH2
modifications: not fully specified (residue 5); printed as H-Lys-hgl-Sni-Phe-leu-Leu-Hyp-Nml-Asp-Arg-Ile-NH2; reading uncertain
B15: JAL-0744 (peptide)
peptide: [Occ][Rni]FGLKLDRI-NH2
modifications: reading uncertain; also: printed as Occ-Rni-Phe-Gly-Leu-Lys-Leu-Asp-Arg-Ile-NH2
B16: JAL-1900 (peptide)
peptide: H-KP[Aoc(2)][Sni]FLL[Hyp][NMeL]DRI-NH2
modifications: not fully specified (residue 6); printed as H-Lys-Pro-Hgl-Sni-Phe-leu-Leu-Hyp-Nml-Asp-Arg-Ile-NH2
B17: JAL-1886 (peptide)
peptide: [Occ][Sni]F[AR‑385‑017]L[Hyp][NMeL]DRI-NH2
modifications: reading uncertain; also: printed as Occ-Sni-Phe-(AR-385-017)-Leu-Hyp-Nml-Asp-Arg-Ile-NH2
B18: JAL-1888 (peptide)
peptide: [Occ][Sni]F[mpa]L[Hyp][NMeL]DRI-NH2
modifications: reading uncertain; also: printed as Occ-Sni-Phe-mpa-Leu-Hyp-Nml-Asp-Arg-Ile-NH2
B19: JAL-1880 (peptide)
peptide: [AR‑385‑042][leu]L[Hyp][NMeL]DRI-NH2
modifications: reading uncertain; also: printed as (AR-385-042)-leu-Leu-Hyp-Nml-Asp-Arg-Ile-NH2
B20: JAL-1894 (peptide)
peptide: [Occ][Sni]F[orn(Me2)]L[Hyp][NMeL]SR[Che]
modifications: reading uncertain; also: printed as Occ-Sni-Phe-orn(Me2)-Leu-Hyp-Nml-Ser-Arg-Che
B21: JAL-1912 (peptide)
peptide: Octanoyl-[Sni]FLL[Hyp][NMeL][pS]RI-NH2
modifications: not fully specified (some residues); printed as Occ-Sni-Phe-leu-Leu-Hyp-Nml-Pse-Arg-Ile-NH2
B22: JAL-1901 (peptide)
peptide: [2857‑Ac][Aoc(2)][Sni]FLL[Hyp][NMeL]DRI-NH2
modifications: not fully specified (residue 5); printed as (2857-Ac)-Hgl-Sni-Phe-leu-Leu-Hyp-Nml-Asp-Arg-Ile-NH2
B23: JAL-1884 (peptide)
peptide: Octanoyl-[Sni]FHL[Hyp][NMeL]DRI-NH2
modifications: not fully specified (some residues); printed as Occ-Sni-Phe-his-Leu-Hyp-Nml-Asp-Arg-Ile-NH2
B24: JAL-1881 (peptide)
peptide: [Occ][Sni]F[Fbz]L[Hyp][NMeL]DRI-NH2
modifications: reading uncertain; also: printed as Occ-Sni-Phe-Fbz-Leu-Hyp-Nml-Asp-Arg-Ile-NH2
B25: JAL-1889 (peptide)
peptide: [Occ][Sni]F[ppa]L[Hyp][NMeL]DRI-NH2
modifications: reading uncertain; also: printed as Occ-Sni-Phe-ppa-Leu-Hyp-Nml-Asp-Arg-Ile-NH2
B26: JAL-1895 (peptide)
peptide: [Occ][Sni]F[orn(Me2)]L[Hyp][NMeL]TR[Che]
modifications: reading uncertain; also: printed as Occ-Sni-Phe-orn(Me2)-Leu-Hyp-Nml-Thr-Arg-Che
B27: JAL-1892 (peptide)
peptide: [Occ][Sni]F[Eao]L[Hyp][NMeL]DRI-NH2
B28: JAL-1893 (peptide)
peptide: [Occ][Sni]F[Aic]L[Hyp][NMeL]DRI-NH2
B29: JAL-1885 (peptide)
peptide: [Occ][Sni]F[metO2]L[Hyp][NMeL]DRI-NH2
B30: JAL-1878 (peptide)
peptide: [Occ][Sni]F[hse]L[Hyp][NMeL]DRI-NH2
modifications: reading uncertain; also: printed as Occ-Sni-Phe-hse-Leu-Hyp-Nml-Asp-Arg-Ile-NH2
B31: JAL-0743 (peptide)
peptide: [Occ][Sni″]FGLKLDRI-NH2
modifications: reading uncertain; also: printed as Occ-Sni-Phe-Gly-Leu-Lys-Leu-Asp-Arg-Ile-NH2

Biological target: T1, natriuretic peptide receptor-B (human)
T1 chain: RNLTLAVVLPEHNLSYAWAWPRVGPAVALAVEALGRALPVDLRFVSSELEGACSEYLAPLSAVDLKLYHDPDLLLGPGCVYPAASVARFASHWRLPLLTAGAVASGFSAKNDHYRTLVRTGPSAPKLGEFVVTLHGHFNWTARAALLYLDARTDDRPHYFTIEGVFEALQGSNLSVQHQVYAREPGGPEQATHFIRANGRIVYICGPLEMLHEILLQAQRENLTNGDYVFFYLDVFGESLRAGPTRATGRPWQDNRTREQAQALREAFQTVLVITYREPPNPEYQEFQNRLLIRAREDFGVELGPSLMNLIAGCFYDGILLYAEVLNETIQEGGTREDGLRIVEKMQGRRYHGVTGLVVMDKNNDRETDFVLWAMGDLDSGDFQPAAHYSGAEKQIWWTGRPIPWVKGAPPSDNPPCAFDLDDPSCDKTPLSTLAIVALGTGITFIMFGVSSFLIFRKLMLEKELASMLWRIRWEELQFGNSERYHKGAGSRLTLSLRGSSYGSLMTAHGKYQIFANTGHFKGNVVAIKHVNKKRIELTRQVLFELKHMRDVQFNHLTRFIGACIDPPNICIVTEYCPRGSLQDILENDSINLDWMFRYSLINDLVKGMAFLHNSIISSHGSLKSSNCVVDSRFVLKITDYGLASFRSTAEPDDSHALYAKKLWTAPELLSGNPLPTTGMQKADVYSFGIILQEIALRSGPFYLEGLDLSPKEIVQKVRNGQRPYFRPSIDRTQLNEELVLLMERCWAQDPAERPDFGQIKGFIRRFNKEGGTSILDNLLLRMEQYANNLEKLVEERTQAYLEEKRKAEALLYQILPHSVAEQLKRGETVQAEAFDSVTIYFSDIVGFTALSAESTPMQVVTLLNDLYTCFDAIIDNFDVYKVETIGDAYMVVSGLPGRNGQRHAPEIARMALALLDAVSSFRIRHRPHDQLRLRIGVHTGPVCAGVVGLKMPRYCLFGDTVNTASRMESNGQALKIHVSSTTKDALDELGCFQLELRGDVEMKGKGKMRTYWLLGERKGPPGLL
Assay: cell-based or functional assay

EC50 group, cGMP in GTM-3 cells	Binder
≤ 15 µM	B1
≤ 5 µM	B2
≤ 5 µM	B3
≤ 15 µM	B4
≤ 5 µM	B5
≤ 5 µM	B6
≤ 5 µM	B7
≤ 1 µM	B8
≤ 15 µM	B9
≤ 5 µM	B10
≤ 1 µM	B11
≤ 5 µM	B12
≤ 5 µM	B13
≤ 5 µM	B14
≤ 15 µM	B15
≤ 1 µM	B16

EC50 group, cGMP in GTM-3 cells	Binder
≤ 5 µM	B17
≤ 5 µM	B18
≤ 5 µM	B19
≤ 5 µM	B20
≤ 15 µM	B21
≤ 5 µM	B22
≤ 5 µM	B23
≤ 5 µM	B24
≤ 5 µM	B25
≤ 1 µM	B26
≤ 5 µM	B27
≤ 5 µM	B28
≤ 5 µM	B29
≤ 5 µM	B30
≤ 5 µM	B31
